Data: US20080267949A1, “Peptides capable of binding to serum proteins” (Ablynx N.V., priority 2006, published 2008)
Ends that are not written are not given here. c2 linker = not defined here

Legend:
[1] = molecular target: T1, mouse serum albumin (MSA) (Mus musculus, UniProt P07724); assay: Phage binding assay, cross-reactivity to mouse serum albumin; settings: different phage concentrations
T1 construct: purchased Sigma A3559
Protocol: (§1) After two selection rounds, monoclonal phage were screened for binding on HSA versus negative control antigen, ovalbumin (A5378, Sigma). Wells of a Maxisorp microtiter plate (Nunc) were coated using 10 μg/mL HSA or ovalbumin and blocked with SuperBlock T20 PBS Blocking Buffer (Pierce) to prevent non-specific binding. Phages, produced in 96-well plate, were diluted 1/10 in 1:1 (v:v) Superblock T20 PBS Blocking Buffer:PBS+0.05% Tween-20 and incubated on both HSA and ovalbumin. Bound phages were detected using anti-M13 (GE Healthcare) and goat anti-mouse IRDye700 (Rockland) and signals were read-out on Odyssey (LI-COR Biosciences). […] Both ‘hits’ were selected from the same library, i.e. originating from llama 117 in the non-constrained format. […] This peptide is referred to as 17D12. Its full amino acid sequence is given in SEQ ID NO: 1, and its encoding nucleotide sequence is given in SEQ ID NO:2. The amino acid sequence of the CDR3 loop is given in SEQ ID NO:3.
(§2) Binding of 17D12, as selected from primary screening after 2 selection rounds on HSA, to serum albumin of different species [mouse serum albumin (MSA, A3559, Sigma), cynomolgus serum albumin (CSA, in-house production), bovine serum albumin (BSA, A6003, Sigma) and HSA] and to negative control antigens [ovalbumin, human tumor necrosis factor α (TNF, in-house production)] was assessed using different phage concentrations. Additionally, similar binding studies were performed with two truncated variants of 17D12. Both peptides, i.e. 17D12-CDR3-NC (SEQ ID NO: 26) and 17D12-CDR3-C (SEQ ID NO;27), lack the flanking FR residues of 17D12 and the former is a non-constrained loop, whereas the latter is constrained (FIG. 4).
(§3) The phage binding assay was performed essentially as described in example 4.

[2] = molecular target: T2, cynomolgus serum albumin (CSA) (Macaca fascicularis, UniProt A2V9Z4); assay: Phage binding assay, cross-reactivity to cynomolgus serum albumin; settings: different phage concentrations
T2 construct: made in house
T2 sequence (A2V9Z4 25-608): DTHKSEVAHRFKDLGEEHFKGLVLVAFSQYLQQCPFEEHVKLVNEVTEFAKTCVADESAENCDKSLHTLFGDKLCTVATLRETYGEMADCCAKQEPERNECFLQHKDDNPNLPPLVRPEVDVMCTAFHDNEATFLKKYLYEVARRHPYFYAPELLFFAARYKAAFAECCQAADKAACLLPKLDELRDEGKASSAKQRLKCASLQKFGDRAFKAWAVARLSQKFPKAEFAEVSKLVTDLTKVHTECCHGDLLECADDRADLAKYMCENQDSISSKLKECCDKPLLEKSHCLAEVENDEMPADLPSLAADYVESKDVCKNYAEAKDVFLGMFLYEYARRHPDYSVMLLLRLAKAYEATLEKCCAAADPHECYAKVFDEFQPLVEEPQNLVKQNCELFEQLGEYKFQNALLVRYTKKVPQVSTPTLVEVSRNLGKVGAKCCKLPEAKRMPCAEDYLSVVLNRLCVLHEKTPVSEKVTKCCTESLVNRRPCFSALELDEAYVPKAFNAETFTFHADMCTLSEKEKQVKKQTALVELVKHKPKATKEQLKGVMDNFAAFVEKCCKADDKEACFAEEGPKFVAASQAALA
Protocol: as §1, §2, §3

ovalbumin = molecular target: T3, ovalbumin (Gallus gallus, UniProt P01012); assay: Phage binding assay on coated negative control antigen ovalbumin
T3 construct: purchased Sigma A5378
T3 sequence (P01012 1-386): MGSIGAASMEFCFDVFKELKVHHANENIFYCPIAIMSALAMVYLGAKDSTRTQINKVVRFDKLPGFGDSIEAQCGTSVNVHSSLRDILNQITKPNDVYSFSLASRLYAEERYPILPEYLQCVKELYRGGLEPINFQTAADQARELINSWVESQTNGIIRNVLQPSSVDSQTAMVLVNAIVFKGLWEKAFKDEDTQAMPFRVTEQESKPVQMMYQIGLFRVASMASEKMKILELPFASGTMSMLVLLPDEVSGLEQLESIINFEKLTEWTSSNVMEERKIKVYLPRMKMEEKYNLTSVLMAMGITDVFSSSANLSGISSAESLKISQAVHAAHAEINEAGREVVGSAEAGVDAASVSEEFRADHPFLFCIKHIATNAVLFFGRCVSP
Protocol: as §1
(§4) The phage binding assay was performed essentially as described in example 3. Phages, produced in 10 mL culture volume, were incubated on both HSA and ovalbumin in a ½ dilution series, starting with 7.5×10^11 phages/mL. […] Non-specific binding to ovalbumin is slightly higher for the constrained truncated peptide.
as §2, §3
(§5) The phage binding assay to HSA and ovalbumin was performed essentially as described in example 4. Phages, produced in 10 mL culture volume, were incubated on both HSA and ovalbumin in a ½ dilution series, starting with 10^12 phages/mL.

[3] = molecular target: T4, human serum albumin (HSA) (Homo sapiens, UniProt P02768); assay: Phage binding assay: peptide expressed on pIII of M13 phage, on coated HSA (anti-M13 detection, Odyssey read-out)
T4 construct: purchased Sigma A5763
Protocol: as §1, §4, §2, §3, §5

[4] = molecular target: T5, bovine serum albumin (BSA) (Bos taurus, UniProt P02769); assay: Phage binding assay, cross-reactivity to bovine serum albumin; settings: different phage concentrations
T5 construct: purchased Sigma A6003
T5 sequence (P02769 25-607): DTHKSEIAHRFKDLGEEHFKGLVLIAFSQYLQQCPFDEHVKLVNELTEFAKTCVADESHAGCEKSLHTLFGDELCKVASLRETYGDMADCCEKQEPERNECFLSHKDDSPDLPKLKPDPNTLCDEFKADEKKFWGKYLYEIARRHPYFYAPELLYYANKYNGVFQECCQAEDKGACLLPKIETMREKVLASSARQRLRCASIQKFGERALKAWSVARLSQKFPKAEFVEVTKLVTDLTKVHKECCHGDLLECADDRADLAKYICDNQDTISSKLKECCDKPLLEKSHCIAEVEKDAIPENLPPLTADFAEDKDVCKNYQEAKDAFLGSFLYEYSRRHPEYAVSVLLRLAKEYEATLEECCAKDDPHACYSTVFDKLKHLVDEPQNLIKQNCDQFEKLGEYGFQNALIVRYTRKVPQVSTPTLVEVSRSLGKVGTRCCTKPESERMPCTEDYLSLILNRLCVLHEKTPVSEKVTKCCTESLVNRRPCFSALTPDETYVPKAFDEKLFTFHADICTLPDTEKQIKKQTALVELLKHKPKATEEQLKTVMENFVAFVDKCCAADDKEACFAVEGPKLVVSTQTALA
Protocol: as §1, §2, §3

[5] = molecular target: T6, human tumor necrosis factor α (TNF) (Homo sapiens, UniProt P01375); assay: Phage binding assay, specificity against negative control antigen TNF; settings: different phage concentrations
T6 construct: made in house
T6 sequence (P01375 77-233 limits assumed): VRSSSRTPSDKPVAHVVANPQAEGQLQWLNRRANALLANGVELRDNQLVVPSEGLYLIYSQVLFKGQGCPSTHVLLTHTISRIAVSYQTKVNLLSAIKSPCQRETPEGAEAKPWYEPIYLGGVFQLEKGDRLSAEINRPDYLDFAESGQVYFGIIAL
Protocol: as §1, §2, §3

[6] = molecular target: T7, rhErbB2-Fc antigen (R&D Systems) (human, UniProt P04626 23-652); assay: SPR: rhErbB2-Fc on a CM5 chip (~3000 RU), 2D3-17D12 injected alone or pre-incubated with 1 or 5 µM HSA (concentration of 2D3-17D12 not given)
T7 construct: Bought; also called HER2 antigen; Her-2 antigen; not shown: Fc part of the bought fusion; not described
Protocol: (§6) FIG. 11: Surface plasmon resonance analysis of simultaneous binding of 2D3-17D12 fusion protein to HER2 antigen and human serum albumin (HSA). 2D3-17D12 fusion protein was pre-incubated or not with 1 and 5 μM HSA, followed by flow over immobilized 2D3 target antigen, rhErbB2-Fc. The dotted line represents the binding characteristics of 2D3 in presence of 25 μM HSA.

[7] = molecular target: T7, rhErbB2-Fc antigen (R&D Systems); assay: SPR: rhErbB2-Fc on a CM5 chip (~3000 RU), 2D3 injected in the presence of 25 µM HSA (concentration of 2D3 not given)
Protocol: as §6

human serum albumin [8] = molecular target: T8, human serum albumin (human, UniProt P02768 25-609); assay: SPR: biotinylated peptide captured on a streptavidin sensorchip, HSA injected for 4 min at 10 µl/min, reference-subtracted
T8 construct: Bought protein; also called HSA
Protocol: Binding of the 2 synthetic peptides Ala-17D12-CDR3 and Cys-Ala-17D12-CDR3 to HSA was assessed by surface plasmon resonance. The biotinylated peptides are each captured on streptavidin-coated sensorchip SA T071122. HSA binding is assessed at various concentrations. The samples were injected for 4 min at a flow rate of 10 ul/min over the activated and reference surfaces to allow for binding to chip-bound antigen. Next, binding buffer without HSA is sent over the chip at the same flow rate to allow for dissociation of bound HSA. After 10 min, remaining bound analyte is removed by injecting regeneration solution (50 mM NaOH).

[9] = molecular target: T9, ovalbumin (negative control antigen) (UniProt P01012 2-386); assay: phage binding assay: ovalbumin coated on Maxisorp, M13 phage in 1/2 dilution series from 10^12 phages/mL, Odyssey intensity
T9 construct: Bought protein
T9 sequence (looked up): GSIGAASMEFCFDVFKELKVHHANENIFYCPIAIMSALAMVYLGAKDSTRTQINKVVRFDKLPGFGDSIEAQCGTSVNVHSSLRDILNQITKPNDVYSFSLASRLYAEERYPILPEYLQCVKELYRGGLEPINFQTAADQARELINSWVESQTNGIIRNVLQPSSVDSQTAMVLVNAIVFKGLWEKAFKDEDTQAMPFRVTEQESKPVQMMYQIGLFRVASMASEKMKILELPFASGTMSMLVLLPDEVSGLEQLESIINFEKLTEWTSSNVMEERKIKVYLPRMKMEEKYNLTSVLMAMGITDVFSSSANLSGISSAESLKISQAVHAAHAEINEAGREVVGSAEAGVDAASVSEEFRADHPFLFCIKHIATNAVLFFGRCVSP
Protocol: The phage binding assay to HSA and ovalbumin was performed essentially as described in example 4. Phages, produced in 10 mL culture volume, were incubated on both HSA and ovalbumin in a ½ dilution series, starting with 10¹² phages/mL. Dose-dependent binding to HSA was retained upon fusion of the peptide 17D12 at the C-terminus of a non-albumin binding intact VHH in the presence or absence of a GlySer linker (FIG. 9).

cynomolgus serum albumin = molecular target: T10, cynomolgus serum albumin (cynomolgus, UniProt A2V9Z4 25-608); assay: phage binding assay on coated Maxisorp wells, 5 phage dilutions per peptide (concentrations not given), Odyssey image
T10 construct: also called CSA; cynoSA
T10 sequence (A2V9Z4 25-608 limits assumed): as the sequence (A2V9Z4 25-608) above
Protocol: as §2
(§7) The phage binding assay was performed essentially as described in example 4. Full length 17D12 peptide as well as truncated peptides, 17D12-CDR3-NC and 17D12-CDR3-C, bind dose-dependently to HSA and CSA, whereas reactivity to MSA and BSA was not apparent in the assay performed (FIG. 6). There is no significant non-specific binding of 17D12 and 17D12-CDR3-NC to irrelevant proteins tested (ovalbumin and TNF). In contrast, there is a subtle degree of non-specific binding with the constrained truncated peptide.

human serum albumin [10] = molecular target: T8, human serum albumin; assay: phage binding assay: 10 µg/mL HSA coated on Maxisorp, M13 phage displaying the peptide on pIII in 1/2 dilution series, anti-M13 + goat anti-mouse IRDye700, Odyssey intensity
Protocol: After two selection rounds, monoclonal phage were screened for binding on HSA versus negative control antigen, ovalbumin (A5378, Sigma). Wells of a Maxisorp microtiter plate (Nunc) were coated using 10 μg/mL HSA or ovalbumin and blocked with SuperBlock T20 PBS Blocking Buffer (Pierce) to prevent non-specific binding. Phages, produced in 96-well plate, were diluted 1/10 in 1:1 (v:v) Superblock T20 PBS Blocking Buffer:PBS+0.05% Tween-20 and incubated on both HSA and ovalbumin. Bound phages were detected using anti-M13 (GE Healthcare) and goat anti-mouse IRDye700 (Rockland) and signals were read-out on Odyssey (LI-COR Biosciences). […] This peptide is referred to as 17D12. Its full amino acid sequence is given in SEQ ID NO: 1, and its encoding nucleotide sequence is given in SEQ ID NO:2. The amino acid sequence of the CDR3 loop is given in SEQ ID NO:3.
The phage binding assay was performed essentially as described in example 3. Phages, produced in 10 mL culture volume, were incubated on both HSA and ovalbumin in a ½ dilution series, starting with 7.5×10¹¹ phages/mL. […] Non-specific binding to ovalbumin is slightly higher for the constrained truncated peptide.

bovine serum albumin = molecular target: T11, bovine serum albumin (bovine, UniProt P02769 25-607); assay: phage binding assay on coated Maxisorp wells, 5 phage dilutions per peptide, Odyssey image
T11 construct: also called BSA
T11 sequence (P02769 25-607 limits assumed): as the sequence (P02769 25-607) above
Protocol: as §2, §7

[11] = molecular target: T12, human tumor necrosis factor α (human, UniProt P01375 77-233); assay: as above
T12 construct: Negative control antigen; also called TNF
T12 sequence (P01375 77-233 limits assumed): as the sequence (P01375 77-233 limits assumed) above
Protocol: as §2, §7

mouse serum albumin = molecular target: T13, mouse serum albumin (mouse, UniProt P07724 25-608); assay: as above
T13 construct: also called MSA
T13 sequence (P07724 25-608 limits assumed): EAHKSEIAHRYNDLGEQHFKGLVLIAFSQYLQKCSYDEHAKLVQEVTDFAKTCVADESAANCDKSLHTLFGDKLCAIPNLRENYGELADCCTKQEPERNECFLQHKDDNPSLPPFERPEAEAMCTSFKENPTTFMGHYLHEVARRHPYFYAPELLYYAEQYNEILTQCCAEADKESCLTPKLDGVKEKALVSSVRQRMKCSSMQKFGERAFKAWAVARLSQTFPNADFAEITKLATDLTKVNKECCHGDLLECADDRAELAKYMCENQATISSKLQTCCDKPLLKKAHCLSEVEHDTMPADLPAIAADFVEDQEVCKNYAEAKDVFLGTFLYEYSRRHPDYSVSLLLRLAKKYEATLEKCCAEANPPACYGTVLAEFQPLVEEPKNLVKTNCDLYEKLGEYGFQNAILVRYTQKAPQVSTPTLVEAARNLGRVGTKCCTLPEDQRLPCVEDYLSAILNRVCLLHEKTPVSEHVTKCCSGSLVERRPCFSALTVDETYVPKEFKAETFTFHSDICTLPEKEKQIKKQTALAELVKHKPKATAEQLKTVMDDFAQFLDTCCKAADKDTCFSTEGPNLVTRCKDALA
Protocol: as §2, §7

[12] = 1/2 dilution series starting with 7.5×10^11 phages/mL
[13] = 1/2 dilution series starting with 10^12 phages/mL

T1 sequence (P07724 25-608): as the sequence (P07724 25-608 limits assumed) above

Molecule: dtavyycnaaasysdydvfgggtdfgpwgqgtqv (DTAVYYCNAAASYSDYDVFGGGTDFGPWGQGTQV; also: displayed on M13 pIII; listed as Lama glama) [17D12]
- Reactivity to MSA [1]: not apparent
- Binding to CSA [2]: bind dose-dependently
- Binding to negative control ovalbumin (Example 4) (ovalbumin; [12]): not to negative control peptide, ovalbumin
- Binding to negative control ovalbumin (Example 7) (ovalbumin; [13]): not to negative control peptide, ovalbumin
- Non-specific binding to irrelevant protein ovalbumin (Example 5) (ovalbumin; different phage concentrations): no significant non-specific binding
- Binding of monoclonal phage to ovalbumin (screening) (ovalbumin; screening after two selection rounds on HSA, phages diluted 1/10): not to ovalbumin
- Binding to HSA (Example 4) [3, 12]: bind dose-dependently to HSA
- Binding to HSA (Example 7, VHH fusions on phage) [3, 13]: bind dose-dependently to HSA
- Binding to HSA (Example 5, cross-reactivity) ([3]; different phage concentrations): bind dose-dependently
- Binding of monoclonal phage to HSA (screening) ([3]; screening after two selection rounds on HSA, phages diluted 1/10, signal/background ratio very low): bind to HSA
- Reactivity to BSA [4]: not apparent
- Non-specific binding to irrelevant protein TNF [5]: no significant non-specific binding

B1: 2D3-17D12 fusion protein (other)
chain: EVQLVESGGSLVQPGGSLRLSCAASGFTFDDYAMSWVRQVPGKGLEWVSSINWSGTHTDYADSVKGRFTISRNNANNTLYLQMNSLKSEDTAVYYCAKNWRDAGTTWFEKSGSAGQGTQVTVSSDTAVYYCNAAASYSDYDVFGGGTDFGPWGQGTQVGGGS
notes: Soluble VHH-peptide fusion expressed in E. coli TG1 and purified by IMAC/SEC; also called Nanobody fusion peptide (2D3-17D12)
- binding result [6]: binds

B2: 2D3 Nanobody (VHH that specifically binds to HER2) (VHH)
VHH: EVQLVESGGSLVQPGGSLRLSCAASGFTFDDYAMSWVRQVPGKGLEWVSSINWSGTHTDYADSVKGRFTISRNNANNTLYLQMNSLKSEDTAVYYCAKNWRDAGTTWFEKSGSAGQGTQVTVSS
notes: also called VHH 2D3
- binding result [7]: binds

B3: Cys-Ala-17D12-CDR3 synthetic biotinylated peptide (acetyl-CAAASYSDYDVFGGGTDFGP-c2 linker-biotin) (peptide)
peptide: Ac-CAAASYSDYDVFGGGTDFGP-{c2 linker-biotin}
modifications: reading uncertain
notes: Captured on a streptavidin-coated sensor chip; HSA injected as analyte; also called PEO-101.5
- binding result (human serum albumin [8]): binds

B4: 17D12 peptide (CDR3 loop with flanking FR3 and FR4 residues), expressed on pIII of M13 phage (peptide)
peptide: DTAVYYCNAAASYSDYDVFGGGTDFGPWGQGTQV
modifications: not fully specified (C-terminus)
notes: also called full length 17D12; not shown: library construct: followed by His6 and c-myc tags, a short Gly-Ala-Ala linker and M13 pIII
- binding result [9]: no binding (tested: 100 x10^10 phage/mL)
- binding result (cynomolgus serum albumin): binds
- EC50 (read off the curve) (human serum albumin [10]): ~5e+10 phage/mL
- binding result (bovine serum albumin): no binding
- binding result [11]: no binding
- binding result (mouse serum albumin): no binding

B5: Ala-17D12-CDR3 synthetic biotinylated peptide (acetyl-AAASYSDYDVFGGGTDFGP-c2 linker-biotin) (peptide)
peptide: Ac-AAASYSDYDVFGGGTDFGP-{c2 linker-biotin}
modifications: reading uncertain
notes: Captured on a streptavidin-coated sensor chip; HSA injected as analyte; also called PEO-100
- binding result (human serum albumin [8]): binds
